These results are taken from patent US20150344570A1 (published 2015).

Assay [1] has as its target T1, FcγRIIIa (human, UniProt P08637 17-208).
T1 construct: extracellular domain; also called FcgRIIIa; CD16A; not shown: His tag attached to the C terminus
The experiment in a line: ratio of SPR KDs: KD of GpH7-TA22/GpH7-B78/GpL16-k0 divided by KD of this antibody. An excerpt: Then, GpH7-TA54 (SEQ ID NO: 46) resulting from the introduction of Y296W into GpH7-TA22 was constructed, and expressed and prepared in combination with GpH7-B78 according to the method described in Reference Example 1. Furthermore, GpH7-TA58 (SEQ ID NO: 45) resulting from the introduction of Y296W into GpH7-B78 was constructed, and expressed and prepared in combination with GpH7-TA22 according to the method described in Reference Example 1. To assess the effect of combination with Y296W, the prepared antibodies were compared for the FcγRIIIa-binding activity according to the method described in Reference Example 2 (Table 17).
(§1) Analysis of interaction between objective antibody and the FcγR was carried out using Biacore T100 (GE Healthcare). HBS-EP+ (GE Healthcare) was used as the running buffer, and the measurement temperature was set to 25° C. Chips produced by immobilizing the antigen peptide by the amine coupling method to a Series S Sencor Chip CM5 (GE Healthcare), or alternatively, chips produced by allowing preliminarily biotinylated antigen peptides to interact with and immobilize onto a Series S Sensor Chip SA (certified) (GE Healthcare) were used. Antibodies of interest were captured onto an antigen peptide-immobilized chip, and allowed to interact to each FcγR diluted with running buffer. To regenerate and repeatedly use the chip, the antibodies captured on the chip were washed off by reacting 10 mM glycine-HCl, pH 1.5.

Assay [2] addresses T1, FcγRIIIa. Briefly: ratio of SPR KDs: KD of GpH7-TA7/GpH7-B78/GpL16-k0 divided by KD of this antibody.
From the text: First, it was considered which H chain should be introduced with Y296W. GpH7-TA52 (SEQ ID NO: 44) resulting from the introduction of the mutation Y296W into GpH7-TA7 was constructed, and expressed and prepared in combination with GpH7-B78 according to the method described in Reference Example 1. Furthermore, GpH7-TA58 (SEQ ID NO: 45) resulting from the introduction of Y296W into GpH7-B78 was constructed, and expressed and prepared in combination with GpH7-TA22 according to the method described in Reference Example 1. To assess the effects of combinations with Y296W, the prepared antibodies were compared for the FcγRIIIa-binding activity according to the method described in Reference Example 2 (Table 16).
as §1

T1 sequence (P08637 17-208): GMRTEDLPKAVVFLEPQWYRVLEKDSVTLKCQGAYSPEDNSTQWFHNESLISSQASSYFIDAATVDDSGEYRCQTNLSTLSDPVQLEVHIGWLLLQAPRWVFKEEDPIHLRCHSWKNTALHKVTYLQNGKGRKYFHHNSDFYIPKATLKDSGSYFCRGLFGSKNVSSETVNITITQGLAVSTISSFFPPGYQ

B1: GpH7-TA22/GpH7-TA58/GpL16-k0 (antibody, human IgG1, kappa)
heavy 1: QVQLVQSGAEVKKPGASVTVSCKASGYTFTDYEMHWIRQPPGEGLEWIGAIDPKTGDTAYSESFQDRVTLTADKSTSTAYMELSSLTSEDTAVYYCTRFYSYTYWGQGTLVTVSSASTKGPSVFPLAPSSKSTSGGTAALGCLVKDYFPEPVTVSWNSGALTSGVHTFPAVLQSSGLYSLSSVVTVPSSSLGTQTYICNVNHKPSNTKVDKKVEPKSCDKTHTCPPCPAPEYLWGPDVFLFPPKPKDTLMISRTPEVTCVVVDVSHEDPEVKFNWYVDGVEVHNAKTKPREEQYNATYRVVSVLTVLHQDWLNGKEYKCKVSNKALPAPIEKTISKAKGQPREPQVYTLPPSRKELTKNQVSLTCLVKGFYPSDIAVEWESNGQPENNYKTTPPVLDSDGSFFLYSKLTVDKSRWQQGNVFSCSVMHEALHNRYTQKSLSLSP
heavy 2: QVQLVQSGAEVKKPGASVTVSCKASGYTFTDYEMHWIRQPPGEGLEWIGAIDPKTGDTAYSESFQDRVTLTADKSTSTAYMELSSLTSEDTAVYYCTRFYSYTYWGQGTLVTVSSASTKGPSVFPLAPSSKSTSGGTAALGCLVKDYFPEPVTVSWNSGALTSGVHTFPAVLQSSGLYSLSSVVTVPSSSLGTQTYICNVNHKPSNTKVDKKVEPKSCDKTHTCPPCPAPELLGGPDVFLFPPKPKDTLMISRTPEVTCVVVDVSHEDPEVKFNWYVDGVEVHNAKTKPREEQWNSTYRVVSVLTVLHQDWLNGKEYKCKVSNKALPLPEEKTISKAKGQPREPQVYTLPPSRDELTKNQVSLTCLVKGFYPSDIAVEWESNGQPENNYKTTPPVLDSDGSFFLYSKLTVDKSRWQQGNVFSCSVMHEALHNHYTQESLSLSP
light: DIVMTQSPLSLPVTPGEPASISCQASESLVHSNRNTYLHWYLQKPGQSPQLLIYKVSNRFSGVPDRFSGSGSGTDFTLKISRVEAEDVGVYYCSQNTHVPPTFGQGTKVEIERTVAAPSVFIFPPSDEQLKSGTASVVCLLNNFYPREAKVQWKVDNALQSGNSQESVTEQDSKDSTYSLSSTLTLSKADYEKHKVYACEVTHQGLSSPVTKSFNRGEC
notes: Anti-glypican-3 IgG1 heterodimer; L234Y/G236W/S239D/S298A in H1, S239D/A330L/I332E/Y296W in H2
On to B1, for which, in assay [1], the KD ratio is 1 fold.

B2: GpH7-TA54/GpH7-B78/GpL16-k0 (antibody, human IgG1, kappa)
heavy 1: QVQLVQSGAEVKKPGASVTVSCKASGYTFTDYEMHWIRQPPGEGLEWIGAIDPKTGDTAYSESFQDRVTLTADKSTSTAYMELSSLTSEDTAVYYCTRFYSYTYWGQGTLVTVSSASTKGPSVFPLAPSSKSTSGGTAALGCLVKDYFPEPVTVSWNSGALTSGVHTFPAVLQSSGLYSLSSVVTVPSSSLGTQTYICNVNHKPSNTKVDKKVEPKSCDKTHTCPPCPAPEYLWGPDVFLFPPKPKDTLMISRTPEVTCVVVDVSHEDPEVKFNWYVDGVEVHNAKTKPREEQWNATYRVVSVLTVLHQDWLNGKEYKCKVSNKALPAPIEKTISKAKGQPREPQVYTLPPSRKELTKNQVSLTCLVKGFYPSDIAVEWESNGQPENNYKTTPPVLDSDGSFFLYSKLTVDKSRWQQGNVFSCSVMHEALHNRYTQKSLSLSP
heavy 2: QVQLVQSGAEVKKPGASVTVSCKASGYTFTDYEMHWIRQPPGEGLEWIGAIDPKTGDTAYSESFQDRVTLTADKSTSTAYMELSSLTSEDTAVYYCTRFYSYTYWGQGTLVTVSSASTKGPSVFPLAPSSKSTSGGTAALGCLVKDYFPEPVTVSWNSGALTSGVHTFPAVLQSSGLYSLSSVVTVPSSSLGTQTYICNVNHKPSNTKVDKKVEPKSCDKTHTCPPCPAPELLGGPDVFLFPPKPKDTLMISRTPEVTCVVVDVSHEDPEVKFNWYVDGVEVHNAKTKPREEQYNSTYRVVSVLTVLHQDWLNGKEYKCKVSNKALPLPEEKTISKAKGQPREPQVYTLPPSRDELTKNQVSLTCLVKGFYPSDIAVEWESNGQPENNYKTTPPVLDSDGSFFLYSKLTVDKSRWQQGNVFSCSVMHEALHNHYTQESLSLSP
light: DIVMTQSPLSLPVTPGEPASISCQASESLVHSNRNTYLHWYLQKPGQSPQLLIYKVSNRFSGVPDRFSGSGSGTDFTLKISRVEAEDVGVYYCSQNTHVPPTFGQGTKVEIERTVAAPSVFIFPPSDEQLKSGTASVVCLLNNFYPREAKVQWKVDNALQSGNSQESVTEQDSKDSTYSLSSTLTLSKADYEKHKVYACEVTHQGLSSPVTKSFNRGEC
notes: Anti-glypican-3 IgG1 heterodimer; L234Y/G236W/S239D/S298A/Y296W in H1, S239D/A330L/I332E in H2
For B2, the KD ratio in assay [1] came to 1.3 fold.

B3: GpH7-TA52/GpH7-B78/GpL16-k0 (antibody, human IgG1, kappa)
heavy 1: QVQLVQSGAEVKKPGASVTVSCKASGYTFTDYEMHWIRQPPGEGLEWIGAIDPKTGDTAYSESFQDRVTLTADKSTSTAYMELSSLTSEDTAVYYCTRFYSYTYWGQGTLVTVSSASTKGPSVFPLAPSSKSTSGGTAALGCLVKDYFPEPVTVSWNSGALTSGVHTFPAVLQSSGLYSLSSVVTVPSSSLGTQTYICNVNHKPSNTKVDKKVEPKSCDKTHTCPPCPAPEYLWGPSVFLFPPKPKDTLMISRTPEVTCVVVDVSHEDPEVKFNWYVDGVEVHNAKTKPREEQWNATYRVVSVLTVLHQDWLNGKEYKCKVSNKALPAPIEKTISKAKGQPREPQVYTLPPSRKELTKNQVSLTCLVKGFYPSDIAVEWESNGQPENNYKTTPPVLDSDGSFFLYSKLTVDKSRWQQGNVFSCSVMHEALHNRYTQKSLSLSP
heavy 2: QVQLVQSGAEVKKPGASVTVSCKASGYTFTDYEMHWIRQPPGEGLEWIGAIDPKTGDTAYSESFQDRVTLTADKSTSTAYMELSSLTSEDTAVYYCTRFYSYTYWGQGTLVTVSSASTKGPSVFPLAPSSKSTSGGTAALGCLVKDYFPEPVTVSWNSGALTSGVHTFPAVLQSSGLYSLSSVVTVPSSSLGTQTYICNVNHKPSNTKVDKKVEPKSCDKTHTCPPCPAPELLGGPDVFLFPPKPKDTLMISRTPEVTCVVVDVSHEDPEVKFNWYVDGVEVHNAKTKPREEQYNSTYRVVSVLTVLHQDWLNGKEYKCKVSNKALPLPEEKTISKAKGQPREPQVYTLPPSRDELTKNQVSLTCLVKGFYPSDIAVEWESNGQPENNYKTTPPVLDSDGSFFLYSKLTVDKSRWQQGNVFSCSVMHEALHNHYTQESLSLSP
light: DIVMTQSPLSLPVTPGEPASISCQASESLVHSNRNTYLHWYLQKPGQSPQLLIYKVSNRFSGVPDRFSGSGSGTDFTLKISRVEAEDVGVYYCSQNTHVPPTFGQGTKVEIERTVAAPSVFIFPPSDEQLKSGTASVVCLLNNFYPREAKVQWKVDNALQSGNSQESVTEQDSKDSTYSLSSTLTLSKADYEKHKVYACEVTHQGLSSPVTKSFNRGEC
notes: Anti-glypican-3 IgG1 heterodimer; L234Y/G236W/S298A/Y296W in H1, S239D/A330L/I332E in H2
On to B3, for which the KD ratio in assay [2] was found to be 1.8 fold.
